Tests used:
[1] = test system: K. pneumonia; assay: In vitro antimicrobial activity against K. pneumonia; type: cell-based; conditions: compared with S. aureus dose response
Procedure: (§1) MMP-12's mechanism of action as a host defense protein was investigated. To test for direct activity, functional full-length recombinant human MMP-12 was incubated with S. aureus in a 5% LB culture. […] MMP-12 enzymatic activity was not required for this antimicrobial effect.
Recombinant full length human MMP-12 was co-incubated with S. aureus and K. pneumonia for 2 hours. Dose response curve was for recombinant murine carboxy terminal domain against S. aureus and E. coli after one-hour co-incubation.

[2] = test system: E. coli (K1); assay: In vitro antimicrobial activity against E. coli (K1); type: cell-based
Procedure: (§2) Mid-log phase bacteria (10^5) were incubated in the absence or presence of purified MMP-12 C-terminal in a total volume of 100 μl of 10 mmol/L sodium phosphate containing 5% (vol/vol) TSB at 37° C. for 1 hour. Serial dilutions were then spread on agarose plates and the number of CFUs were determined after overnight incubation.

[3] = test system: S. aureus; assay: In vitro antimicrobial activity, co-incubation with S. aureus in 5% LB and CFU count; type: cell-based, Staphylococcus aureus; conditions: for direct antimicrobial activity: S. aureus, similar doses and conditions as full-length MMP-12; for antimicrobial activity after heat denaturation: heat denaturation / heat inactivation; for antimicrobial activity after enzymatic inhibition: inhibited with hydroxamic acid, an MMP inhibitor
Procedure: S. aureus co-culture was incubated for 60 minutes with doses of MMP-12 C-terminal. Aliquots of cultures were diluted in PBS at 1:10 and 1:100 dilution. Dilutions were plated on LB agar plates for 18 hour incubation at 37° C. Controls consisted of column fractions that lacked MMP-12 carboxy terminal determined by immunoblotting.
as §1, §2

Molecule | antimicrobial activity against K. pneumonia [1] | antimicrobial activity against E. coli (K1) [2] | bacterial kill ([3]; 16 μg/ml, 2-hour incubation, 5% LB culture) | direct antimicrobial activity ([3]; 5% LB culture) | direct antimicrobial activity ([3]; 5% LB culture, listed as pro-MMP-12) | antimicrobial activity after heat denaturation [3] | antimicrobial activity after heat denaturation ([3]; listed as Pro-MMP-12) | antimicrobial activity after enzymatic inhibition [3] | antimicrobial activity after enzymatic inhibition ([3]; listed as Pro-MMP-12)
MMP-12: functional full-length recombinant human MMP-12 (macrophage elastase), Genbank NP_002417 (protein, listed as Homo sapiens) MKFLLILLLQATASGALPLNSSTSLEKNNVLFGERYLEKFYGLEINKLPVTKMKYSGNLMKEKIQEMQHFLGLKVTGQLDTSTLEMMHAPRCGVPDLHHFREMPGGPVWRKHYITYRINNYTPDMNREDVDYAIRKAFQVWSNVTPLKFSKINTGMADILVVFARGAHGDFHAFDGKGGILAHAFGPGSGIGGDAHFDEDEFWTTHSGGTNLFLTAVHEIGHSLGLGHSSDPKAVMFPTYKYVDINTFRLSADDIRGIQSLYGDPKENQRLPNPDNSEPALCDPNLSFDAVTTVGNKIFFFKDRFFWLKVSERPKTSVNLISSLWPTLPSGIEAAYEIEARNQVFLFKDDKYWLISNLRPEPNYPKSIHSFGFPNFVKKIDAAVFNPRFYRTYFFVDNQYWRYDERRQMMDPGYPKLITKNFQGIGPKIDAVFYSKNKYYYFFQGSNQFEYDFLLQRITKTLKSNSWFGC | antimicrobial activity | antimicrobial activity | 90% | antimicrobial activity | direct anti-microbial effect | Neither the denatured MMP-12 or enzymatically inhibited enzyme lost its antimicrobial function | did not lose its anti-microbial activity | Neither the denatured MMP-12 or enzymatically inhibited enzyme lost its antimicrobial function | did not lose its anti-microbial activity
MMP-9: commercially available full length pro-MMP 9 (protein, UniProt P14780 20-707, looked up, pro-form) pro-form: APRQRQSTLVLFPGDLRTNLTDRQLAEEYLYRYGYTRVAEMRGESKSLGPALLLLQKQLSLPETGELDSATLKAMRTPRCGVPDLGRFQTFEGDLKWHHHNITYWIQNYSEDLPRAVIDDAFARAFALWSAVTPLTFTRVYSRDADIVIQFGVAEHGDGYPFDGKDGLLAHAFPPGPGIQGDAHFDDDELWSLGKGVVVPTRFGNADGAACHFPFIFEGRSYSACTTDGRSDGLPWCSTTANYDTDDRFGFCPSERLYTQDGNADGKPCQFPFIFQGQSYSACTTDGRSDGYRWCATTANYDRDKLFGFCPTRADSTVMGGNSAGELCVFPFTFLGKEYSTCTSEGRGDGRLWCATTSNFDSDKKWGFCPDQGYSLFLVAAHEFGHALGLDHSSVPEALMYPMYRFTEGPPLHKDDVNGIRHLYGPRPEPEPRPPTTTTPQPTAPPTVCPTGPPTVHPSERPTAGPTGPPSAGPTGPPTAGPSTATTVPLSPVDDACNVNIFDAIAEIGNQLYLFKDGKYWRFSEGRGSRPQGPFLIADKWPALPRKLDSVFEERLSKKLFFFSGRQVWVYTGASVLGPRRLDKLGLGADVAQVTGALRSGRGKMLLFSGRRLWRFDVKAQMVDPRSASEVDRMFPGVPLDTHDVFQYREKAYFCQDRFYWRVSSRSELNQVDQVGYVTYDILQCPED |  |  |  | did not demonstrate this direct antimicrobial activity |  |  |  |  | 
MMP-2: commercially available full length pro-MMP 2 (protein, UniProt P08253 30-660, looked up, pro-form) pro-form: APSPIIKFPGDVAPKTDKELAVQYLNTFYGCPKESCNLFVLKDTLKKMQKFFGLPQTGDLDQNTIETMRKPRCGNPDVANYNFFPRKPKWDKNQITYRIIGYTPDLDPETVDDAFARAFQVWSDVTPLRFSRIHDGEADIMINFGRWEHGDGYPFDGKDGLLAHAFAPGTGVGGDSHFDDDELWTLGEGQVVRVKYGNADGEYCKFPFLFNGKEYNSCTDTGRSDGFLWCSTTYNFEKDGKYGFCPHEALFTMGGNAEGQPCKFPFRFQGTSYDSCTTEGRTDGYRWCGTTEDYDRDKKYGFCPETAMSTVGGNSEGAPCVFPFTFLGNKYESCTSAGRSDGKMWCATTANYDDDRKWGFCPDQGYSLFLVAAHEFGHAMGLEHSQDPGALMAPIYTYTKNFRLSQDDIKGIQELYGASPDIDLGTGPTPTLGPVTPEICKQDIVFDGIAQIRGEIFFFKDRFIWRTVTPRDKPMGPLLVATFWPELPEKIDAVYEAPQEEKAVFFAGNEYWIYSASTLERGYPKPLTSLGLPPDVQRVDAAFNWSKNKKTYIFAGDKFWRYNEVKKKMDPGFPKLIADAWNAIPDNLDAVVDLQGGGHSYFFKGAYYLKLENQSLKSVKFGSIKSDWLGC |  |  |  | did not demonstrate this direct antimicrobial activity |  |  |  |  | 
